Data as given in the supplement of paper PMC12764529.
± gives the half width of the 95% confidence interval.

Columns and labels:
[1] = folding stability dG unfold (combined trypsin and chymotrypsin); higher = more stable
In short: (§1)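 Sequencing followed digestion of designed mini-proteins with trypsin and chymotrypsin, each at 11 concentrations in threefold dilutions together with a no-protease condition. The mini-proteins were under 80 residues, had no cysteine, sat in a PA-tagged cDNA display construct, and were kept only if AlphaFold2 dimer inter-PAE was above 15. From the counts, Bayesian fitting gave K50, and unfolding free energy was derived against a sequence-predicted unfolded-state K50 and a shared folded-state K50, per protease or combined.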

[2] = folding stability dG unfold from trypsin proteolysis; higher = more stable
In short: as §1

[3] = folding stability dG unfold from chymotrypsin proteolysis; higher = more stable
In short: as §1

Sequence	folding stability dG unfold [1] [kcal/mol]	folding stability dG unfold [2] [kcal/mol]	folding stability dG unfold [3] [kcal/mol]
SKKKKKKKKKKPKTVIIEIDVKEMSEEEIREILKKLPKNVKRVIIIAKSEEEKEKLKELLKEAGYEVEIVSA [r9_919_TrROS_Hall]	1.76 ± 0.25	1.96 ± 0.18	1.94 ± 0.069
SKKKKKKKKKKVIIKIKKDGKEIYIEMTVEEIKELLKKGVKKIEIYSPSEEEKEKIKKLLEEEGVEVEEVSA [r9_810_TrROS_Hall]	1.78 ± 0.18	2 ± 0.1	1.71 ± 0.07
SKKKKKKTIKIKITIKVEKEVKIRIIYNGKEKEITIKPGETKTIEITFPAGKVIIEIYKDGKPIKKIEIKSA [r9_411_TrROS_Hall]	2.95 ± 0.1	2.94 ± 0.092	3 ± 0.051
SKKKKPPKKTVTVVVKVKPGEKITLTLKNKDGKEIAKVEFTKLPEDEPLYIATVTLKDGKLTIKVTKLKPSA [r9_238_TrROS_Hall]	2.66 ± 0.34	2.1 ± 0.36	2.53 ± 0.13
SKKKKTIVIELTKDELKELLKKLKVEEGDEVEIFVRNKDGSIYKLTIKNGKITKIEPFKGVPNKVVIVIKSA [r9_849_TrROS_Hall]	3.07 ± 0.3	1.84 ± 0.067	3.49 ± 0.068
SKKKVTININITPGDPEQMEENVRWAIKEAAENDPDKEVTITIHFPPGHPEWMRWIKELFTKKGIPITIHSA [r9_1202_TrROS]	3.16 ± 0.059	2.88 ± 0.042	3.3 ± 0.037
SKKTVYRIVIELENGEKLEIEVPLGSEVKIEKKEDGTITITVNGKKIEIKLKPGEKAKIVKIEKLPEEEESA [r9_773_TrROS_Hall]	2.52 ± 0.23	2.1 ± 0.13	2.48 ± 0.064
SKKVKEITIEGAPPGAKVTITVEEKGDKLIVRVEVERNGKTETFEVEMTLDELKALLDAGYTIRITEVIPSA [r9_1021_TrROS_Hall]	1.99 ± 0.35	2.04 ± 0.15	2.12 ± 0.086
SKKVTLPIRFPWNGWEIEITAEELAEKKGLDPEDLTIHVVMPGPGWMYTIKIDPDGIEIEPIGPVPPNDMSA [r9_819_TrROS]	2.54 ± 0.074	1.45 ± 0.029	2.951 ± 0.026
SKKVVFVTYPKTSVKEIVEKLKENPNTEFVFLMPSSVGPEFYEKLKKALKEANIPKEQKVLFLPVEENSLSA [r9_670_TrMRF]	3.04 ± 0.077	2.92 ± 0.13	3.106 ± 0.015
SKKYFLKIEIEIEVELRPLPDEPGYVVLRARIKIKITLVKVDPETGEIVEEKEFEIEIEIELVFPPGVKPSA [r9_1234_TrROS_Hall]	> 6	4.35 ± 0.58	6.38 ± 0.71
SKLKIEDIKWNPNYPGMYEFKIKLPDKPATIQIPHDPNNGRFMMEIWYPDKPVTVQFDSWDDALAFIKELSA [r9_366_TrROS]	1.52 ± 0.11	1.6 ± 0.046	1.35 ± 0.16
SKMKVIKTFENKETGEKIVIVKDEKTKKYYIFIYNKDGELVEKIEVEPGETITLPNGKTITIKEGDVIEFSA [r9_340_TrROS_Hall]	4.35 ± 0.087	4.24 ± 0.13	4.24 ± 0.071
SKNKVEITIPMPYSQAREIARQLGLPPEKFKDPKDLVDWLKDLFPKDVKIRIQPMKPVTEEERRARQNGKSA [r9_74_TrROS]	1.12 ± 0.085	0.817 ± 0.12	1.34 ± 0.076
SKNYPIRISIFQRNPNGNPQTVTYPIPVDAAKELKDAGFEVKDVDPDSGMIMVKFPMPNYPVYIMISIEDSA [r9_5_TrROS]	2.98 ± 0.13	2.75 ± 0.093	3.12 ± 0.056
SKPDPVKIEIEQERNPNGQPQHTIKIQDKGKDRKFPIHNMSIDEFDPDDPYIKIRSPGNGQSHTIPPDDLSA [r9_1186_TrROS]	0.832 ± 0.098	-0.0606 ± 0.073	1.22 ± 0.022
SKPILKIKINIPVLKDKNGKEIIPSPNDVLAALEKLGIPVDKAEITKIGKNTIPILILVDLVDGKAYVKDSA [r9_225_TrMRF]	1.13 ± 0.1	1.51 ± 0.059	0.539 ± 0.054
SKPPSDPGSIEFSFPDSSNVTVTIPVPLPPNTTVSISLSDGKSYTVPGGTTFTFTLPPGKPFTVTVNIRSSA [r9_79_JUSTAS]	4.23 ± 0.2	3.75 ± 0.2	4.47 ± 0.061
SKPTLTLKLTVVVKDENGEKKTVTLTIPVSEEELEKLLKEIAKELGLKDVKVVKIEKNKNGFIKITVEVKSA [r9_1101_TrROS_Hall]	2.36 ± 0.21	2.16 ± 0.12	2.36 ± 0.033
SKTFYAGLDVYFDPDSDELTALVGVRSEDGSYEPSLEEVAREVAAKLRELGYEVEVEPLPGYARIRVKPPSA [r9_510_TrMRF]	1.71 ± 0.057	1.67 ± 0.039	1.72 ± 0.069
SKTIIIEVKEEKLEEIAEELAKKLEEETGYKIKKVEIILPDGTVVRIEVDAKTKKIKIEVYKLDKNGKLLSA [r9_173_TrROS_Hall]	1.97 ± 0.1	1.15 ± 0.037	2.24 ± 0.096

Sequence	folding stability dG unfold [1] [kcal/mol]	folding stability dG unfold [2] [kcal/mol]	folding stability dG unfold [3] [kcal/mol]
SKTIMFQFDSIEEIKDFIKEAIDDGDPDQKIRIEWYPPGGRRQEHEIESPEDIIDFLENGPYWIRVEIEPSA [r9_589_TrROS]	2.05 ± 0.12	1.68 ± 0.052	2.16 ± 0.047
SKVIYVPPGATVEEILAAIKANKGKTVTIVMSREELERLKKALEEAGYEVEEVKVFEEEPYVVVKIKVKPSA [r9_1138_TrROS_Hall]	3.84 ± 0.18	4 ± 0.17	3.72 ± 0.12
SLGPLVELAELFPDFEPLGVEEEPLEDGGRLLRVIGRIPEIGAYLLIEVRLPPGGGIESIRAEWVPEDELSA [r9_274_TrMRF]	3.95 ± 0.11	3.4 ± 0.12	4.28 ± 0.071
SLIEALRAALEAGADEVTLRIVMPEEEAEELEKALEDLGFEIVSRERVEVDGRRYLVMEIRLRAPPPEEPSA [r9_498_TrROS_Hall]	4.59 ± 0.1	3.92 ± 0.095	4.93 ± 0.084
SLKPGEWVMFMFTIPITIRITKDDLPPGWKIKEVTIRIYVMFLFRVDPDGNFKILSFNIMIEIEVKYEPDSA [r9_747_TrROS]	4.98 ± 0.11	4.52 ± 0.13	5.1 ± 0.081
SLRDIAKEIAEKAGMDPEDVEINVETEPDPKNGKPRLRITVSIEHPNRKYMIKIDFQDGEIEEIMPLEDISA [r9_1219_TrROS]	1.74 ± 0.3	1.66 ± 0.099	1.97 ± 0.089
SLSPALEGPEALAALAAADPVPPLPVLTVKNSTGDPEKALEEVLKEHPELKPELIVEVEVGEGTLTITVLSA [r9_723_JUSTAS]	0.48 ± 0.19	0.442 ± 0.13	0.573 ± 0.095
SLTAEEAAANPELAARLLALPPVPPFPVELLFVNPETRAVLPAKATVYQFPNTWLVLFPENGAALPVPGGSA [r9_548_TrMRF]	1.1 ± 0.099	0.71 ± 0.14	1.26 ± 0.074
SLTPEQVEKIAKTIADVFRKLGYELKVKTKVFEVNNVPVAVVEFELIDKDGKPRRFRFVIHPDGTIEIFPSA [r9_1027_TrMRF]	> 6	4.15 ± 0.07	6.18 ± 0.092
SMATVLSVSENPENPDTLSFEVELPDSPMSVTVPKDPKTGKYTMTVETPEATTTRDFTSLEDALAYIERASA [r9_366_JUSTAS]	0.795 ± 0.034	0.787 ± 0.021	0.758 ± 0.08
SMDFKENQSFYITEITDDEVTFIFNNKPYKFPKEFINSKDTIITIYNGKIKEIKKPKPLKLHPEEIKKLSSA [r9_842_TrMRF]	1.04 ± 0.36	0.519 ± 0.17	1.43 ± 0.12
SMDIKVTKLPDGSYRITASVPPDTKPITIPVPKTGKPVVITTEPGKLTVTTDDEEVVKEVAEAIKKGELLSA [r9_515_JUSTAS]	1.02 ± 0.15	0.951 ± 0.066	0.929 ± 0.087
SMEEEEEEPEPAPVVVITVEPGETVEQVRAAAREAAEKGMRIVITGLSEEEAKAIAEELGLDVEIEVVEPSA [r9_1207_TrROS_Hall]	2.69 ± 0.78	3.01 ± 0.33	1.47 ± 0.16
SMEEIAKEIAEKAGVNWENVEFKVEEKEDPETGEKYLIAHVVIKLPNEKYIAVIDLRDKKILEIWKLEDISA [r9_1219_TrMRF]	3.61 ± 0.11	2.91 ± 0.11	3.73 ± 0.063
SMEIDPGPGVIRLRFEAPLVDPEHPRLLTLRLEPVIEVSPDGTLRVREVRLVGFSPDGELLFERPFTLDLSA [r9_383_TrMRF]	2.16 ± 0.066	1.865 ± 0.017	2.28 ± 0.06
SMEISFTDPAEAEALLAEVKAKLKAELPPNTVVPITVRDAAGNPTTHPITITPEPPEVVYFTETGGTVLLSA [r9_596_JUSTAS]	1.76 ± 0.28	1.94 ± 0.17	1.57 ± 0.051
SMEIVFKGKNYYVPVKIDLDNPKITIETYPDKRNKVFKPLSKETAEKIAKAVEIEVAEKIAKAIAEGKPPSA [r9_368_TrMRF]	-0.246 ± 0.54	0.0537 ± 0.39	-0.5 ± 0.66
SMEKVKAKPAGEVTFVFDNEDPSLTPEQQVELVEKELEKLPELKIYEVEAEVDLETGKVTIKVKLLVEEVSA [r9_1001_TrMRF]	0.814 ± 0.22	-0.41 ± 0.28	1.26 ± 0.11
SMEMTPEERLLALLREARKKHPGKKIVLSVEEIEELLGVDLSAEEIAKLLKEELGIDEVEIVEEEEPEEESA [r9_738_TrROS_Hall]	3.01 ± 0.069	2.11 ± 0.056	3.375 ± 0.031
SMEPGELRLRAKVPLRIVNPDGEEIADIEIEVRSIEELEEAIAEAARELAERLGRPDAPVVIDDIEVEDESA [r9_376_TrMRF]	0.482 ± 0.23	0.239 ± 0.19	0.643 ± 0.14
SMGMTPEEYILELVREALAADPDAAVTIDHDDIVRNTPNPISKEEIEKLAKEKTGVEDLTVTETPPDVPPSA [r9_738_JUSTAS]	0.265 ± 0.061	0.18 ± 0.023	0.252 ± 0.054
